Assay results taken from paper doi:10.1101/2025.07.24.666444.

Key:
[1] = molecular target: AtPCO4 Y183F (Arabidopsis thaliana); experiment: other fluorescence titration
[2] = molecular target: AtPCO4 Y73R (Arabidopsis thaliana); experiment: other fluorescence titration
[3] = molecular target: AtPCO4 C173A (Arabidopsis thaliana); experiment: other fluorescence titration
[4] = molecular target: AtPCO4 D177E (Arabidopsis thaliana); experiment: other fluorescence titration
[5] = molecular target: AtPCO4 Y183F (Arabidopsis thaliana)
[6] = molecular target: AtPCO4 Y73R (Arabidopsis thaliana)
[7] = molecular target: AtPCO4 S107L (Arabidopsis thaliana)
[8] = molecular target: AtPCO4 V105G (Arabidopsis thaliana)

A Kd [1] of 3500 µM, a Kd [2] of 3000 µM and a Kd [3] of 250 µM were found for “RAP2.12_(2-15) peptide substrate (from UniProt Q9SSA8 2-15)” in this work. The Kd [4] was 150 µM, the catalytic constant (kcat) of RAP2.12 (2-15) oxidation [5] was 0.5 s⁻¹ and the catalytic constant (kcat) of RAP2.12 (2-15) oxidation [6] was 0.0167 s⁻¹. The Michaelis-Menten constant (KM) for RAP2.12 (2-15) in the activity assay [7] was 99 µM and the Michaelis-Menten constant (KM) for RAP2.12 (2-15) in the activity assay [8] was 97 µM.
